# Measurements from patent US20050232917 (published 2005).
# Positions count from the first letter of the chain named. Read-outs that look alike come from different tables or passages of the source.
# T1: cynomolgus/human MAdCAM chimera (on CHO cells) (cynomolgus/human)
# T1 chain: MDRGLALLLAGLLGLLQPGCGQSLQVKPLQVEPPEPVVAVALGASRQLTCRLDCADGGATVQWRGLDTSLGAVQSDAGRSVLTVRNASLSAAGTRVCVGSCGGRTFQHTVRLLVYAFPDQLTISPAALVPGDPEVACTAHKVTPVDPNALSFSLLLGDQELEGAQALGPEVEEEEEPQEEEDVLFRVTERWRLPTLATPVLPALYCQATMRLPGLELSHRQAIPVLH
# T2: human MAdCAM (on CHO cells) (human, UniProt Q13477)
# T2 chain: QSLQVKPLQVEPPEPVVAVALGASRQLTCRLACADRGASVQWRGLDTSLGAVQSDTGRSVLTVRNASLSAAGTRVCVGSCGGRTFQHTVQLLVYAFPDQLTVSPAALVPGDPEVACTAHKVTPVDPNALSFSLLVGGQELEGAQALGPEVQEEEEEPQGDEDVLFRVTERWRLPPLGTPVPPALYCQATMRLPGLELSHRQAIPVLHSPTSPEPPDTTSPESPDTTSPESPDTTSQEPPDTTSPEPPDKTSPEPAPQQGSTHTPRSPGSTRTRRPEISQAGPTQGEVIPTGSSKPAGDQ
# T3: mouse MAdCAM (mouse, UniProt Q61826)
# T3 chain: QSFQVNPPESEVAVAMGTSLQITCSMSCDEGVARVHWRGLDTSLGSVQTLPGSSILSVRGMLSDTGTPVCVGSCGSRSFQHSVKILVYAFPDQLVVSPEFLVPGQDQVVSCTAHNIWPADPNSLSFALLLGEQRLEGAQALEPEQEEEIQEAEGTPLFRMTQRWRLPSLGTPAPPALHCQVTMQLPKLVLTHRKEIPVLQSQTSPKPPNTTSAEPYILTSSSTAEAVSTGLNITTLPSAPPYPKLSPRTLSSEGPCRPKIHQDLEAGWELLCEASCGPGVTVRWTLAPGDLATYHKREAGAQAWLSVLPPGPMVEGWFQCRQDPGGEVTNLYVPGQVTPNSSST
# B1: 7.26.4 (antibody, V domains shown)
# VH: QVQLVQSGAEVKKPGASVKVSCEASGYTFTSYGIDWVRQAPGQGLEWMGWISVYSGNTNYAQKLQGRVTMSTDTSTSTAYMELRSLRSDDTAVYYCAREGSSSSGDYYYGMDVWGQGTTVTVSS
# VL: DIVMTQTPLSLSVTPGQPASISCKSNQSLLYSDGKTYLFWYLQKPGQPPQLLIYEVSNRFSGVPDRFSGSGSGTDFTLKISRVEAEDVGVYYCMQSIQLPWTFGQGTKVEIKR
# B2: 7.16.6 (antibody, V domains shown)
# VH: B1 VH with E23K, D35N, L64V, S71T, T72A, E82D
# VL: B1 VL with N26S, Y31H, S32T, K35T, F39Y, V90I, S96N
# B3: 6.77.1 (antibody, V domains shown)
# VH: EVQLVESGGGLVKPGGSLRLSCAASGFTFSSYSMNWVRQAPGKGLEWVSSISSSSSYIYYADSVKGRFTISRDNAKNSLYLQMNSLRAEDTAVYYCARDGYSSGWSYYYYYGMDVWGQGTTVTVSS
# VL: B1 VL with K24N, N26S, Y31L, F39N, Y92S, P100M, W101C, T102S, V109L
# B4: 1.8.2 (antibody, V domains shown)
# VH: EVQLVESGGGLVKPGGSLRLSCVVSGFTFTNAWMIWVRQAPGKGLEWVGRIKRKTDGGTTDYAAPVKGRFTISRDDSKNTLYLQMNSLKTEDTAVYYCTTGGVAEDYWGQGTLVTVSS
# VL: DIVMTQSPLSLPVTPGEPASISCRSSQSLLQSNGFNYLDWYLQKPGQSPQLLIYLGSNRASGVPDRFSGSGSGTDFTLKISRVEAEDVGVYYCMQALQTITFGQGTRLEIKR
# B5: 1.7.2 (antibody, V domains shown)
# VH: B4 VH with V24A
# VL: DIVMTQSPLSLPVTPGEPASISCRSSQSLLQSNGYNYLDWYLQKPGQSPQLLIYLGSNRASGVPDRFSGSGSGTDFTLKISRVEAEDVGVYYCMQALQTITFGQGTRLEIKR
# B6: 6.22.2 (antibody, V domains shown)
# VH: QVQLVESGGGVVQPGRSLRLSCAASGHTFSSDGMHWVRQAPGKGLEWVAIIWYDGSNKYYADSVKGRFTISRDNSKNTLYLQMNSLRAEDTAVYYCARDPGYYYGMDVWGQGTTVTVSS
# VL: EIVLTQSPDFQSVTPKEKVTITCRASQRIGSSLHWYQQKPDQSPKLLIKYASQSFSGVPSRFSGSGSGTNFTLTINGLEAEDAATYYCHQSGRLPLTFGGGTKVEIKR
# B7: 6.34.2 (antibody, V domains shown)
# VH: QVQLVESGGGVVQPGRSLRLSCAASGFTFSSYGMHWVRQAPGKGLEWVAVISNDGNNKYYADSVKGRFTISRDNSKNTLYLQMNSLSAEDTAVYYCARDSTAITYYYYGMDVWGQGTTVTVSS
# VL: MDMRVPAQLLGLLLLWLRGARCDIQMTQSPSSLSASVGDRVTITCRASQNISSYLNWFQQKPGKAPKLLIYAASGLKRGVPSRFSGSGSGTDFTLTIRTLQPDDFATYSCHQSYSLPFTFGPGTKVDIKR
# B8: 6.34.2-mod (antibody, V domains shown)
# VH: B7 VH with S87R
# VL: B7 VL with N50S, F58Y, R98S, T99S, D103E, S109Y
# B9: 6.67.1 (antibody, V domains shown)
# VH: QVQLQESGPGLVKPSETLSLTCTVSGDSISSNYWSWIRQPAGKGLEWIGRIYTSGGTNSNPSLRGRVTILADTSKNQFSLKLSSVTAADTAVYYCARDRITIIRGLIPSFFDYWGQGTLVTVSS
# VL: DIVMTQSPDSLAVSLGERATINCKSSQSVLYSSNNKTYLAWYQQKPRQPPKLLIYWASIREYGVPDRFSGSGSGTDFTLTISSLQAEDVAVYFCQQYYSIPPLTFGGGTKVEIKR
# B10: 6.14.2 (antibody, V domains shown)
# VH: EVQLLESGGGLVQPGGSLRLSCAASGLTFNNSAMTWVRQAPGKGLEWVSTTSGSGGTTYYADSVKGRFTISRDSPKNTLYLQMNSLRAEDTAVYYCAARGYSYGTTPYEYWGQGTLVTVSS
# VL: MDMRVPAQLLGLLLLWLRGARCDIQMTQSPSSLSASVGDRVTITCRASRSISSYLNWYQQKPGKAPKVLIFFVSSLQSGVPSRFSGSGSGTDFTLTISSLQPEDFATYYCQQNYIPPITFGQGTRLEIRR
# B11: 6.73.2 (antibody, V domains shown)
# VH: EVQLLESGGDLVQPGGSLRLSCAASGFTFRSYAMNWVRQAPGKGLEWVSVISGRGGTTYYADSVKGRFTISRDNSKNTLYLQMNSLRAEDAAVYYCAKIAVAGEGLYYYYGMDVWGQGTTVTVSS
# VL: MDMRVPAQLLGLLLLWLRGARCDIQMTQSPSSLSASVGDRVTFTCRASQNITNYLNWYQQKPGKAPKLLIYAASSLPRGVPSRFRGSGSGTDFTLTISSLQPEDFATYYCQQSYSNPPECGFGQGTTLDIKR
# B12: 7.20.5 (antibody, V domains shown)
# VH: QVQLQESGPGLVKPSETLSLTCTVSGSSISSYHWNWIRQPAGKGLEWIGRIYTSGSTNYNPSLKSRVTMSLDTSKNQFSLKLSSVTAADTAVYYCAREGVRYYYASGSYYYGLDVWGQGTTVTVSS
# VL: not shown
# B13: 9.8.2 (antibody, V domains shown)
# VH: QVQLVESGGGVVQPGRSLRLSCAASGFTFSSYGMHWVRQAPGKGLEWVAVIWYDGSNEYYADSVKGRFTISRDNSKNTLYLQMNSLRAEDTAVYYCARGAYHFAYWGQGTLVTVSS
# VL: DMRVPAQLLGLLLLWLSVAGARCDIQMTQSPSSLSASVGDRVTITCQASQDISNYLNWYQQKPGKAPKLLIYDASNLETGVPSRFSGSGSGTDFTFTISSLQPEDIATYSCQHSDNLSITFGQGTRLEIKR
# Tests used:
# [1] = target: T1, cynomolgus/human MAdCAM chimera (on CHO …); test: competition, JY cell adhesion to CHO
# [2] = target: T2, human MAdCAM (on CHO cells); test: competition, JY cell adhesion to CHO
# MAdCAM-IgG1 Fc fusion [3] = target: MAdCAM-IgG1 Fc fusion (human); test: SPR, protocol 2
# MAdCAM-IgG1 Fc fusion (human), sequence (chain, as listed by the source): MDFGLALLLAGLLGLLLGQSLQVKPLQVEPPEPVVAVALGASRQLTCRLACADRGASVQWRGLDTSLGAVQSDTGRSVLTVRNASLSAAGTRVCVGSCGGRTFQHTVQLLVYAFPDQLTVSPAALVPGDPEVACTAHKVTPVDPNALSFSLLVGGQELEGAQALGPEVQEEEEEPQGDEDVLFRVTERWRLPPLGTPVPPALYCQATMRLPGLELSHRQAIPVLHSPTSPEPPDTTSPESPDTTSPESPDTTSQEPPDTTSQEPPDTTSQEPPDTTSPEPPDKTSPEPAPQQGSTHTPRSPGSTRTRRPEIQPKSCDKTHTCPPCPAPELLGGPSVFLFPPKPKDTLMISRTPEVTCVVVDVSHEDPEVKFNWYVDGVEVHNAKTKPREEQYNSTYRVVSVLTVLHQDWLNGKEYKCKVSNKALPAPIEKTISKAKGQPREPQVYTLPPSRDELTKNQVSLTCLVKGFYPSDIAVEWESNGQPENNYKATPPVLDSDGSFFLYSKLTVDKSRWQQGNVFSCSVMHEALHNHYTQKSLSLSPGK
# MAdCAM-IgG1 Fc fusion [4] = target: MAdCAM-IgG1 Fc fusion (human); test: competition, JY cell adhesion
# MAdCAM-IgG1 Fc fusion [5] = target: MAdCAM-IgG1 Fc fusion (human); test: SPR, protocol 1
# mouse MAdCAM = target: T3, mouse MAdCAM; test: ELISA
# MAdCAM-IgG1 Fc fusion [6] = target: MAdCAM-IgG1 Fc fusion (human); test: competition, JY cell adhesion; remark: listed apart in the source
# [7] = target: T1, cynomolgus/human MAdCAM chimera (on CHO …); test: FACS
binder,measurement,setting,value
B1,IC50,[1],0.96 µg/mL
same,IC50,[2],0.574 µg/mL
B2,Kd,MAdCAM-IgG1 Fc fusion [3],0.0048 nM
same,IC50,[1],0.72 µg/mL
same,IC50,MAdCAM-IgG1 Fc fusion [4],0.019 µg/mL
same,Kd,MAdCAM-IgG1 Fc fusion [5],0.0015 nM
B3,IC50,[1],0.64 µg/mL
same,IC50,[2],0.52 µg/mL
same,Kd,MAdCAM-IgG1 Fc fusion [5],0.0067 nM
B4,IC50,[2],0.424 µg/mL
same,IC50,MAdCAM-IgG1 Fc fusion [4],0.027 µg/mL
same,Kd,MAdCAM-IgG1 Fc fusion [5],0.035 nM
B5,IC50,[2],0.502 µg/mL
same,IC50,MAdCAM-IgG1 Fc fusion [4],0.03 µg/mL
same,Kd,MAdCAM-IgG1 Fc fusion [5],0.042 nM
B6,IC50,[1],0.83 µg/mL
same,IC50,[2],0.573 µg/mL
B7,Kd,MAdCAM-IgG1 Fc fusion [3],< 0.015 nM
same,binding result,mouse MAdCAM,no binding
same,IC50,[1],0.47 µg/mL
same,IC50,[2],0.285 µg/mL
same,IC50,MAdCAM-IgG1 Fc fusion [6],0.013 µg/mL
same,IC50,MAdCAM-IgG1 Fc fusion [4],0.013 µg/mL
same,Kd,MAdCAM-IgG1 Fc fusion [5],0.0158 nM
B8,IC50,MAdCAM-IgG1 Fc fusion [6],0.049 µg/mL
B9,IC50,[1],0.75 µg/mL
same,IC50,[2],0.298 µg/mL
B10,Kd,MAdCAM-IgG1 Fc fusion [3],< 0.01 nM
same,binding result,mouse MAdCAM,no binding
same,IC50,[1],0.53 µg/mL
same,IC50,[2],0.291 µg/mL
same,IC50,MAdCAM-IgG1 Fc fusion [4],0.011 µg/mL
same,Kd,MAdCAM-IgG1 Fc fusion [5],0.0077 nM
B11,binding result,[7],no binding
same,binding result,mouse MAdCAM,no binding
same,IC50,[2],0.369 µg/mL
same,IC50,MAdCAM-IgG1 Fc fusion [4],0.02 µg/mL
same,Kd,MAdCAM-IgG1 Fc fusion [5],0.093 nM
B12,IC50,[1],0.62 µg/mL
same,IC50,[2],0.387 µg/mL
B13,Kd,MAdCAM-IgG1 Fc fusion [3],0.0325 nM
same,binding result,mouse MAdCAM,no binding
same,IC50,[1],0.83 µg/mL
same,IC50,[2],0.44 µg/mL
same,IC50,MAdCAM-IgG1 Fc fusion [4],0.02 µg/mL
same,Kd,MAdCAM-IgG1 Fc fusion [5],0.1 nM
